Patent EP4803151A2 (Lepu Biopharma Co., Ltd., dated 2026)

How the values were obtained:
[1] = target: T1, ECD of human DLL3 protein fused with his tag (Acro Bio, Cat. No. DL3-H52H4) (human, UniProt Q9NYJ7 27-492); test: ELISA, hDLL3-his coated
T1 construct: range 27-492; Bought protein; also called hDLL3-his; human DLL3-his protein; not shown: his tag
T1 sequence (looked up): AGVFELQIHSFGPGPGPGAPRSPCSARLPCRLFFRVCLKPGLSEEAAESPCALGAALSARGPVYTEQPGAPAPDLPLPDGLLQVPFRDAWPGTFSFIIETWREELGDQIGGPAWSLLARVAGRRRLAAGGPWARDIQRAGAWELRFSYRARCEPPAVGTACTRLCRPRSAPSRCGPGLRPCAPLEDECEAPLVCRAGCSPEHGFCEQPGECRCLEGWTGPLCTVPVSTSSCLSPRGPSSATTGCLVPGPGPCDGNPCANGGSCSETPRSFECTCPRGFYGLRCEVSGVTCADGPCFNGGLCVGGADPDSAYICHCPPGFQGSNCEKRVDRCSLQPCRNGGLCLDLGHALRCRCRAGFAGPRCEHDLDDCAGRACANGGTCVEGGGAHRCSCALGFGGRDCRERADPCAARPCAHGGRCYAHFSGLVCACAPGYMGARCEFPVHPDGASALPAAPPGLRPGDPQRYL

[2] = target: T2, human full length DLL1 expressed on CHO-K1 cells (human, UniProt O00548 18-723); test: flow cytometry on CHO-K1-hDLL1 cells
T2 construct: whole, on cells; also called CHO-K1-hDLL1
T2 sequence (looked up): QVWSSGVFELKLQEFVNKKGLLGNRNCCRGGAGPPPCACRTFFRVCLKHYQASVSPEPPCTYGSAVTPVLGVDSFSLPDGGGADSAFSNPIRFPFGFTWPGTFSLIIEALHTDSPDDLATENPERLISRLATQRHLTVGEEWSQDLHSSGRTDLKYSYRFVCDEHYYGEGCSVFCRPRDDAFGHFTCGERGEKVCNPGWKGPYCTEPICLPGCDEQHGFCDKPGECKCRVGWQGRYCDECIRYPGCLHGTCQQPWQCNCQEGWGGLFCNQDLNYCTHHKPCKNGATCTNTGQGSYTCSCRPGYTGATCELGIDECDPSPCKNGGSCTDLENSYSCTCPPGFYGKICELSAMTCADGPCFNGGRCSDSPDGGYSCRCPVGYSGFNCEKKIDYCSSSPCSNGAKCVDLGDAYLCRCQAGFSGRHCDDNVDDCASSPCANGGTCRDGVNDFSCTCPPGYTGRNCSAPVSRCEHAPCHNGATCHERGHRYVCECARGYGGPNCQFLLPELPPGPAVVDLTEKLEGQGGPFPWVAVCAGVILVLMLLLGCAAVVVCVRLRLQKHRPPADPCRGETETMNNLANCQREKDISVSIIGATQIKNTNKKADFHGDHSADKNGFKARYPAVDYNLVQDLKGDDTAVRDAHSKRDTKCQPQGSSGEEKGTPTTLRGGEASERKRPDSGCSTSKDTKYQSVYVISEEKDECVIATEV

[3] = target: T3, human full length DLL4 expressed on CHO-K1 cells (human, UniProt Q9NR61 27-685); test: flow cytometry on CHO-K1-hDLL4 cells
T3 construct: whole, on cells; also called CHO-K1-hDLL4
T3 sequence (Q9NR61 27-685): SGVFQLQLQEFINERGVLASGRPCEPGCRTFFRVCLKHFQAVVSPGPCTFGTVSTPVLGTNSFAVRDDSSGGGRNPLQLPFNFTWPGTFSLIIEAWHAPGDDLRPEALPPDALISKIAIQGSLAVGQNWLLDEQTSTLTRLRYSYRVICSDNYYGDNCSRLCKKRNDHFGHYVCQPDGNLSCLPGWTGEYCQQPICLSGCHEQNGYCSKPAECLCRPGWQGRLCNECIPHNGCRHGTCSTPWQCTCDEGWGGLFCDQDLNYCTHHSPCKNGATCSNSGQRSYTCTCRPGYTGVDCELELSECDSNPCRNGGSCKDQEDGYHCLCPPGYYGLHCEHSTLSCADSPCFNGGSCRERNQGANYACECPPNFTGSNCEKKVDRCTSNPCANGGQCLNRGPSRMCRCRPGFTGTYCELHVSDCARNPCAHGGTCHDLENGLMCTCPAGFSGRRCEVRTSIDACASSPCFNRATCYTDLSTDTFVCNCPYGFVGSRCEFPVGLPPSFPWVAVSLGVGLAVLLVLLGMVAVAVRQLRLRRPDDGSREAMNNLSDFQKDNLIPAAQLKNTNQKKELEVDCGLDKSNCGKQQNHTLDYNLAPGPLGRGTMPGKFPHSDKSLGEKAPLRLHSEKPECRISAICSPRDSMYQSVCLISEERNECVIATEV

[4] = target: T4, ECD of human DLL3 over-expressed on HEK293 cells (human, UniProt Q9NYJ7 27-492); test: flow cytometry on HEK293-hDLL3 cells
T4 construct: extracellular domain; also called HEK293-hDLL3; human DLL3 expressed on HEK293 cells
T4 sequence (looked up): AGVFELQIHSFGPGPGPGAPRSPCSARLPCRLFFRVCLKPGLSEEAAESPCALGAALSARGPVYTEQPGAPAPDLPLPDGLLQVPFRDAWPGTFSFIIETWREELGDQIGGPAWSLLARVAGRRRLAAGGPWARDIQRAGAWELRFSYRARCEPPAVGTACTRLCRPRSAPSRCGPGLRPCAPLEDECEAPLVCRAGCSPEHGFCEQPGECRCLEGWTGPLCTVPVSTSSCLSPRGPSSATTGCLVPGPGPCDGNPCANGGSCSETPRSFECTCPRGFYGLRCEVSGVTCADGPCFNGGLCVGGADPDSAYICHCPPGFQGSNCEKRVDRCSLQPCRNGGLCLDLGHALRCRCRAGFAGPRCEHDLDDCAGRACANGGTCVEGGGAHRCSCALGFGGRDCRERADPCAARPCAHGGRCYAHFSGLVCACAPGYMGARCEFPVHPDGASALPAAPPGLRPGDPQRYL

[5] = target: T5, human DLL3 endogenously expressed on SCLC tumor cell lines SHP77 and NCI-H82 (human, UniProt Q9NYJ7 27-618); test: flow cytometry on SHP77 and NCI-H82 cells
T5 construct: whole, on cells; also called human DLL3 expressed on tumor cells
T5 sequence (looked up): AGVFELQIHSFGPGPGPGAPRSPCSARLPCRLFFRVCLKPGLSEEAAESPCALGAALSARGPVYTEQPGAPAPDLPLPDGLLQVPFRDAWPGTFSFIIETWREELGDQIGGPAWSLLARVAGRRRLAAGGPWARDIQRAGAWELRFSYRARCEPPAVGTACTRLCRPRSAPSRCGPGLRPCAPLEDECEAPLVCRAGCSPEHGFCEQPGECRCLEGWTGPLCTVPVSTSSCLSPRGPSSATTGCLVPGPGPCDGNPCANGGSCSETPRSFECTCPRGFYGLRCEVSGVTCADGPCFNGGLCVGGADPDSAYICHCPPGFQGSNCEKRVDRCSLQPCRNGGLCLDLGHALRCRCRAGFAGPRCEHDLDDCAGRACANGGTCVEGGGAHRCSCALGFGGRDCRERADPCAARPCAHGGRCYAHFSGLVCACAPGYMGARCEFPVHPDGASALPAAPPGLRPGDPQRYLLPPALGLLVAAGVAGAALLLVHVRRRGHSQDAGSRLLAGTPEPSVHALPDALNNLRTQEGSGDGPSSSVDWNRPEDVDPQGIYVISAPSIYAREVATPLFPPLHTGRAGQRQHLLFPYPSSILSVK

B1: 310P3C5-z8 humanized antibody (antibody, human IgG1, kappa, V domains shown)
VH: QVQLVQSGAEVKKPGASVKVSCKASGYTFTDFYMNWVRQAPGQGLEWIGDANPNNGGTTHNPRFKGQATLTVDKSTSTAYMELRSLRSDDTAVYYCARGGLPGDFDYWGQGTTVTVSS
VL: DIQMTQSPSSVSASVGDRVTITCKASEDIYNRLAWYQQKPGKAPKLLISGVTSLETGVPSRFSGSGSGTDFTLTISSLQPEDFATYYCQQYWSFPWTFGGGTKVEIKR
notes: HU-VH1-4 with HU-VL1-2; human IgG1
[1]
  binding result: binds
[2]
  binding result: no binding
[3]
  binding result: no binding
[4]
  binding result: binds
[5]
  binding result: binds

B2: 310P3C5-z4 humanized antibody (antibody, human IgG1, kappa, V domains shown)
VH: QVQLVQSGAEVKKPGASVKVSCKASGYTFTDFYMNWVRQAPGQGLEWIGDANPNNGGTTHNPRFKGQATLTVDKSTSTAYMELRSLRSDDTAVYYCARGGLPGDFDYWGQGTTVTVSS
VL: DIQMTQSPSSVSASVGDRVTITCKASEDIYNRLAWYQQKPGKAPKLLIYGVTSLETGVPSRFSGSGSGTDFTLTISSLQPEDFATYYCQQYWSFPWTFGGGTKVEIKR
notes: HU-VH1-4 with HU-VL1-1; human IgG1
[1]
  binding result: binds
[2]
  binding result: no binding
[3]
  binding result: no binding
[4]
  binding result: binds
[5]
  binding result: binds

B3: 310P3C5-z12 humanized antibody (antibody, human IgG1, kappa, V domains shown)
VH: QVQLVQSGAEVKKPGASVKVSCKASGYTFTDFYMNWVRQAPGQGLEWIGDANPNNGGTTHNPRFKGQATLTVDKSTSTAYMELRSLRSDDTAVYYCARGGLPGDFDYWGQGTTVTVSS
VL: DIQMTQSPSSVSASVGDRVTITCKASEDIYNRLAWYQQKPGKAPKLLISGVTSLETGVPSRFSGSGSGKDFTLTISSLQPEDFATYYCQQYWSFPWTFGGGTKVEIKR
notes: HU-VH1-4 with HU-VL1-3; human IgG1
[1]
  binding result: binds
[2]
  binding result: no binding
[3]
  binding result: no binding
[4]
  binding result: binds
[5]
  binding result: binds

B4: 310P3C5-z14 humanized antibody (antibody, human IgG1, kappa, V domains shown)
VH: QVQLVQSGAEVKKPGASVKVSCKASGYTFTDFYMNWVKQAPGQGLEWIGDANPNNGGTTHNPRFKGRATLTVDKSASTAYMELRSLRSEDTAVYYCARGGLPGDFDYWGQGTTVTVSS
VL: DIQMTQSPSSVSASVGDRVTITCKASEDIYNRLAWYQQKPGKAPKLLIYGVTSLETGVPSRFSGSGSGTDFTLTISSLQPEDFATYYCQQYWSFPWTFGGGTKVEIKR
notes: HU-VH2 with HU-VL1-1; human IgG1
[1]
  binding result: binds
[2]
  binding result: no binding
[3]
  binding result: no binding
[4]
  binding result: binds
[5]
  binding result: binds

B5: 310P3C5-z15 humanized antibody (antibody, human IgG1, kappa, V domains shown)
VH: QVQLVQSGAEVKKPGASVKVSCKASGYTFTDFYMNWVKQAPGQGLEWIGDANPNNGGTTHNPRFKGRATLTVDKSASTAYMELRSLRSEDTAVYYCARGGLPGDFDYWGQGTTVTVSS
VL: DIQMTQSPSSLSASVGDRVTITCKASEDIYNRLAWYQQKPGKAPKLLISGVTSLETGVPSRFSGSGSGTDFTFTISSLQPEDIATYYCQQYWSFPWTFGGGTKVEIKR
notes: human IgG1
[1]
  binding result: binds
[2]
  binding result: no binding
[3]
  binding result: no binding
[4]
  binding result: binds
[5]
  binding result: binds
